The text below walks through data of patent US20180291110A1 (Hoffmann-La Roche, published 2018).

First the molecules themselves.
B1: 4/94 SEQ ID NO 196 / murine VL (antibody, V domains shown)
VH: QVQLVQSGAEVKKPGASVKVSCKASGFNIKDTYIHWVIQAPGQGLEWMGRIDPANGDTKSDPKFQGRVTITADTSTSTVYMELSSLRSEDTAVYYCVRDYLYPYYFDFWGQGTTVTVSS
VL: KIVMTQSPKSMSMSVGERVTLNCRASESVDTYVSWYQQKPEQSPELLIYGASNRYTGVPDRFTGSGSATDFTLTISSVQAEDLADYYCGQTYNYPLTFGAGTKLELKR
B2: 4/94 SEQ ID NO 196 / SEQ ID NO 201 (antibody, V domains shown)
VH: QVQLVQSGAEVKKPGASVKVSCKASGFNIKDTYIHWVIQAPGQGLEWMGRIDPANGDTKSDPKFQGRVTITADTSTSTVYMELSSLRSEDTAVYYCVRDYLYPYYFDFWGQGTTVTVSS
VL: KIQMTQSPSSLSASVGDRVTITCRASESVDTYVSWYQQKPGKAPKLLIYGASNRYTGVPSRFSGSGSGTDFTLTISSLQPEDFADYYCGQTYNYPLTFGQGTKLEI
B3: 4/94 SEQ ID NO 194 / murine VL (antibody, V domains shown)
VH: QVQLVQSGAEVKKPGASVKVSCKASGFNIKDTYIHWVIQAPGQGLEWMGRIDPANGDTKSDPKFQVRVTITADTSTSTVYMELSSLRSEDTAVYYCVRDYLYPYYFDFWGQGTTVTVSS
VL: KIVMTQSPKSMSMSVGERVTLNCRASESVDTYVSWYQQKPEQSPELLIYGASNRYTGVPDRFTGSGSATDFTLTISSVQAEDLADYYCGQTYNYPLTFGAGTKLELKR
B4: 4/94 SEQ ID NO 197 / murine VL (antibody, V domains shown)
VH: QVQLVQSGAEVKKPGSSVKVSCKASGFNIKDTYIHWVIQAPGQGLEWMGRIDPANGDTKSDPKFQGRVTITADESTSTAYMELSSLRSEDTAVYYCVRDYLYPYYFDFWGQGTTVTVSS
VL: KIVMTQSPKSMSMSVGERVTLNCRASESVDTYVSWYQQKPEQSPELLIYGASNRYTGVPDRFTGSGSATDFTLTISSVQAEDLADYYCGQTYNYPLTFGAGTKLELKR
B5: 4/94 SEQ ID NO 194 / SEQ ID NO 201 (antibody, V domains shown)
VH: QVQLVQSGAEVKKPGASVKVSCKASGFNIKDTYIHWVIQAPGQGLEWMGRIDPANGDTKSDPKFQVRVTITADTSTSTVYMELSSLRSEDTAVYYCVRDYLYPYYFDFWGQGTTVTVSS
VL: KIQMTQSPSSLSASVGDRVTITCRASESVDTYVSWYQQKPGKAPKLLIYGASNRYTGVPSRFSGSGSGTDFTLTISSLQPEDFADYYCGQTYNYPLTFGQGTKLEI
B6: 4/94 SEQ ID NO 195 / SEQ ID NO 201 (antibody, V domains shown)
VH: QVQLVQSGAEVKKPGASVKVSCKASGFNIKDTYIHWVIQAPGQGLEWMGRIDPANGDTKSAPKFQVRVTITADTSTSTVYMELSSLRSEDTAVYYCVRDYLYPYYFDFWGQGTTVTVSS
VL: KIQMTQSPSSLSASVGDRVTITCRASESVDTYVSWYQQKPGKAPKLLIYGASNRYTGVPSRFSGSGSGTDFTLTISSLQPEDFADYYCGQTYNYPLTFGQGTKLEI
B7: 4/94 SEQ ID NO 198 / murine VL (antibody, V domains shown)
VH: QVQLVQSGAEVKKPGSSVKVSCKASGFNIKDTYIHWVIQRPGQGLEWMGRIDPANGDTKSDPKFQGRVTITADESTSTAYMELSSLRSEDTAVYYCVRDYLYPYYFDFWGQGTTVTVSS
VL: KIVMTQSPKSMSMSVGERVTLNCRASESVDTYVSWYQQKPEQSPELLIYGASNRYTGVPDRFTGSGSATDFTLTISSVQAEDLADYYCGQTYNYPLTFGAGTKLELKR
B8: 4/94 SEQ ID NO 195 / murine VL (antibody, V domains shown)
VH: QVQLVQSGAEVKKPGASVKVSCKASGFNIKDTYIHWVIQAPGQGLEWMGRIDPANGDTKSAPKFQVRVTITADTSTSTVYMELSSLRSEDTAVYYCVRDYLYPYYFDFWGQGTTVTVSS
VL: KIVMTQSPKSMSMSVGERVTLNCRASESVDTYVSWYQQKPEQSPELLIYGASNRYTGVPDRFTGSGSATDFTLTISSVQAEDLADYYCGQTYNYPLTFGAGTKLELKR

In the experiment the target is T1, human transferrin receptor (recombinant, for surface plasmon resonance) (human, UniProt P02786 89-760).
T1 construct: also called huTfR; human transferrin receptor-biotinylated
T1 sequence (P02786 89-760 limits assumed): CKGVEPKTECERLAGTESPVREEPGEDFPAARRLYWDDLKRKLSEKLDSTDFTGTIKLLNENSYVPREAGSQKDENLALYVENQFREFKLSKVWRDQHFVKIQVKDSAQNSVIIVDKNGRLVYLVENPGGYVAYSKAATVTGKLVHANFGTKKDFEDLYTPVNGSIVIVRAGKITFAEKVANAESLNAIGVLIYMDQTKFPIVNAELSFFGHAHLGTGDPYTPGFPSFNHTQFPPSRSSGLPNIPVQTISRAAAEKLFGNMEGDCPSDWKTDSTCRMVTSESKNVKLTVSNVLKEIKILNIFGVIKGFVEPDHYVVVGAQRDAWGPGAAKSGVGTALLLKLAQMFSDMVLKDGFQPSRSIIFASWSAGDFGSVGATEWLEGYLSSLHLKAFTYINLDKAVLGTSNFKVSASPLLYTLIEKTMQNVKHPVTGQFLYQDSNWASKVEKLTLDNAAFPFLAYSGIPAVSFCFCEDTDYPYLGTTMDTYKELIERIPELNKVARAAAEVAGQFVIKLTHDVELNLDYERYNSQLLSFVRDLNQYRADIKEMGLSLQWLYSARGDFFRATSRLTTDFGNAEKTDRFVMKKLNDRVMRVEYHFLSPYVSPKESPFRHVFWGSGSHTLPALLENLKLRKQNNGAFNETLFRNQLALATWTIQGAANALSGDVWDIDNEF
Kind of experiment: SPR. For orientation: In SPR one partner is held on a chip, and binding of the other changes the refractive index at the surface.
Consider B1, for which the koff worked out at 0.000339 s⁻¹. As to B2, the koff amounted to 0.000386 s⁻¹. With B3 the figure was 0.00037 s⁻¹; with B4, 0.000542 s⁻¹. Next, B5: 0.00041 s⁻¹; B6: 0.000399 s⁻¹; B7: 0.000544 s⁻¹.

As to B8, the koff came out at 0.000364 s⁻¹.

A word on the koff: it is the rate constant with which the complex falls apart.
